Measured values published in patent publication CN108546297A (ACAD OF MILITARY SCIENCES PLA CHINA ACAD OF MILITARY …, dated 2018).

What was measured:
BTLA/Fc = target: T1, BTLA/Fc (UniProt Q7Z6A9 31-157, limits assumed); experiment: indirect ELISA, antigen coated at 1 μg/mL, goat anti-human F(ab')2-HRP
T1 construct: not shown: Fc part of the fusion
T1 sequence (looked up): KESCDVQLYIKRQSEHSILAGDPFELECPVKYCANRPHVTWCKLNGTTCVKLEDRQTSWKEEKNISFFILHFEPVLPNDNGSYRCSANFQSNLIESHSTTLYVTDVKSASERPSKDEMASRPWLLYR

CTLA4/Fc = target: T2, CTLA4/Fc (UniProt P16410 36-162, limits assumed); experiment: as above
T2 construct: not shown: Fc part of the fusion
T2 sequence (looked up): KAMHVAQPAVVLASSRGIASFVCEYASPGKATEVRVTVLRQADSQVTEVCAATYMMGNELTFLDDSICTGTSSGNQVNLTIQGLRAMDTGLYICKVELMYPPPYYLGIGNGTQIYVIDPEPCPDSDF

CD28/Fc = target: T3, CD28/Fc (UniProt P10747 19-152); experiment: as above
T3 construct: not shown: Fc part of the fusion

ICOS/Fc = target: T4, ICOS/Fc (UniProt Q9Y6W8 21-141); experiment: as above
T4 construct: not shown: Fc part of the fusion
T4 sequence (looked up): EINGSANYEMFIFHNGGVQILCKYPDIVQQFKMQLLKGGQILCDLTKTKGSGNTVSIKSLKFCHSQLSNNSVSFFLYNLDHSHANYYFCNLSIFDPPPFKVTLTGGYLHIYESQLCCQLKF

PD-1/Fc = target: T5, PD-1/Fc (UniProt Q15116 25-167); experiment: Biacore SPR: antibody captured by anti-human Fab on a CM5 chip, PD-1/Fc as analyte
T5 construct: also called PD-1/Fc抗原; PD-1/Fc融合蛋白; not shown: Fc part of the fusion
T5 sequence (Q15116 25-167 limits assumed): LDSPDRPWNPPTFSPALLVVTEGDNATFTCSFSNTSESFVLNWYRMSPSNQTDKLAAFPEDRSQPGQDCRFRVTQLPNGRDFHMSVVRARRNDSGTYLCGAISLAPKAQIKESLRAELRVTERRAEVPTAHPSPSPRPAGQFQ

T3 sequence (P10747 19-152 limits assumed): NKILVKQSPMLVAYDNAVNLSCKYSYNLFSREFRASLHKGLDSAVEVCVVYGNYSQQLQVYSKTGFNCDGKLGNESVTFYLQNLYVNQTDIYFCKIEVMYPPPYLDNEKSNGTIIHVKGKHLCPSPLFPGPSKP

- binding result (BTLA/Fc): no binding (tested: antibody at 1 μg/mL)
- binding result (CTLA4/Fc): no binding (tested: antibody at 1 μg/mL)
- binding result (CD28/Fc): no binding (tested: antibody at 1 μg/mL)
- binding result (ICOS/Fc): no binding (tested: antibody at 1 μg/mL)
- Kd (PD-1/Fc): 0.328 nM
- koff (PD-1/Fc): 9.6e-05 s⁻¹
- kon (PD-1/Fc): 292000 M⁻¹ s⁻¹
B1: 本发明制备的抗PD-1抗体 (anti-PD-1 monoclonal antibody of the invention) (antibody, V domains shown)
VH: QVQLVESGGGVVQPGRSLRLNCKASGITFSNSGMHWVRQAPGKGLEWVAVIWYDGSKLYYADSVKGRFTISRDNSKNTLFLQMNSLRAEDTAVYYCATDSDYWGQGTLVTVSS
VL: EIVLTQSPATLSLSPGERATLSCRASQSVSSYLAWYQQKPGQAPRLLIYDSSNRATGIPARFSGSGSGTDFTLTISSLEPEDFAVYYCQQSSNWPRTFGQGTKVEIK
notes: Variable regions cloned into the full-length antibody vector PRT/KIgG1 (IgG1 heavy constant region CH1-CH2-CH3, kappa light constant region); also called 本发明制备抗体
